Reference: paper PMC9886862

Biological target: HoxG, large subunit of the membrane-bound [NiFe]-hydrogenase (MBH) from Cupriavidus necator, isolated, with N-terminal Strep-tag II (Cupriavidus necator) (UniProt P31891)
Assay: SEC; HoxG at higher concentrations (series 0.5, 2.5, 12.5 and 60 mg/ml); Superdex 200 Increase 10/300 GL; 50 mM KiPO4, 150 mM NaCl, pH 7.4, 4 °C; sizes from a calibration curve of reference proteins

For “HoxG, large subunit of the membrane-bound [NiFe]-hydrogenase (MBH) from Cupriavidus necator, isolated, with N-terminal Strep-tag II (from UniProt P31891 1-618) (natural protein)”, the stoichiometry N was 2.
